Assays:
[1] = test system: PSMA-positive human LNCaP tumors; assay: Biodistribution of 111In labeled MAbs in nude mice bearing LNCaP tumors; format: in vivo, mouse
Protocol: Prior to use, the cells were trypsinized, counted and suspended in Matrigel (Collaborative Biomedical Products, Bedford, Mass.). Nu/Nu Balb C mice 8-10 weeks of age were inoculated, in the right and left flanks, with a suspension of 5×10^6 LNCaP cells in Matrigel (BD Biosciences, Bedford Mass.). After a period of 14-18 days, tumors (100-300 mg) had developed. The PSMA-negative DU145 and PC3 cells were implanted in nude mice in an identical manner.
The PSMA-positive and PSMA-negative tumor bearing mice were injected, via the tail vein, with 80 KBq of the iodinated MAb (400 MBq/mg) in 200 μL of PBS (pH 7.4, 0.2% BSA). Groups of animals (3-8/group) were sacrificed after 2, 4 or 6 days. The major organs and tumors were recovered. The tissue samples were weighed and counted, with appropriate standards in an automatic NaI(Tl) counter. These measured relative activity data (cpm) were background corrected and expressed as a percentage of the injected dose per gram (% ID/g). […] J415, J591 and 7E11 were labeled with ^111In (100 MBq/mg). 80 KBq of the ^111In labeled MAbs were injected in groups of animals. The % ID/g in various organs and tumor tissues was determined at 2-6 days post injection in a similar way as described for ^131I labeled MAbs.

[2] = test system: recurrent, progressing prostate cancer; assay: Phase I trial of four weekly doses of 111In-DOTA-deJ591; design: species or system human; details: human, in vivo
Protocol: Patients with recurrent, progressing prostate cancer received four weekly doses of ^111In-DOTA-deJ591. Doses were escalated in cohorts of three patients and ranged from 62.5-500 mg/m2 (total). […] After the first dose, patients were imaged on the day of injection (day 0) and days 1, 2, 4 and 7.
Serum PK, immune reaction and toxicity were evaluated after each dose for a minimum of 12 weeks.

[3] = test system: hormone-refractory prostate cancer metastases; assay: Nuclear imaging with 111In or 177Lu labeled deJ591 versus standard imaging; format: in vivo, human
Protocol: The antibody scans were compared to standard imaging studies (bone, CT or MR scans) obtained on each patient to assess the underlying sensitivity, specificity, and accuracy of deJ591 targeting to metastatic sites. Bony and soft tissue metastases were evaluated independently.

[4] = test system: vascular endothelium of solid tumors; assay: Phase I trial of 111In-DOTA-deJ591 in refractory non-prostate solid tumors; format: in vivo, human
Text: Eligible patients were those with refractory solid tumor malignancies whose tumor types are known to express PSMA on the neovasculature.
Patients the participated in the study included eight renal cell cancer patients, four bladder cancer patients, two colon cancer patients, and one pancreas cancer patient.

[5] = Pharmacokinetics of deJ591 and deJ591-DM1 in cynomolgus monkeys; format: in vivo; details: Monkey, male & female
prostate cancer = details: after each radiolabeled dose over five months
Text: Dose twelve was radiolabeled with a therapeutic quantity of ^90Yttrium (19 mCi) calculated to deliver less than a 150 rad dose to the blood.

LNCaP tumor xenografts = assay: Murine J591-DM1 immunoconjugate in BALB/c mice with LNCaP xenografts; format: in vivo, mouse; details: unconjugated, equimolar, intraperitoneal qday x 5 days
Protocol: Tumor xenografts of LNCaP cells were established in the right flank of BALB/c mice (5×10^6 cells injected subcutaneously). Animals were observed until tumors were visible (7-10 mm). Animals were then treated with PBS, unconjugated mAb J591, unconjugated DM1, both mAb J591 and DM1 but unconjugated, and J591-DM1 immunoconjugate (100, 200, 300, and 400 mcg/day intraperitoneal qday×5 days). The mAb J591 was modified to introduce dithiopyridyl groups and then conjugated to DM1 via a hindered disulfide bond, as described above. Unconjugated mAb J591 and DM1 were given in equimolar concentrations.
Tumor xenografts of both LNCaP cells (5×10^6 cells injected subcutaneously in the right flank) and PC3 cells (3×10^6 cells injected subcutaneously in the left flank) were established in BALB/c mice. Animals were observed until LNCaP tumors were visible (PC3 tumors were present but much smaller). Animals treated with J591-DM1 immunoconjugate: 300 mcg/day intraperitoneal qday×5 days
Tumor xenografts of LNCaP cells were established subcutaneously in the right flank of BALB/c mice. […]
All animals were photographed pre- and post-treatment and tagged for identification. Tumor volume was determined (length×width×depth) and closely followed. […]

[6] = test system: androgen-independent PSMA-positive 22RV1 xenograft; assay: deJ591-DM1 efficacy in castrate or intact scid mice bearing 22RV1 xenograft; format: in vivo, mouse
Protocol: Prostate tumors can be broadly classified as either androgen-dependent or androgen-independent. […] The 22RV1 cell line was originally developed as androgen-independent and can be grown as a xenograft in C.B-17 scid mice that have been left either intact or castrated. […] This was approximately twice the time required for the tumors of intact mice to reach 1000 mm^3 (9.3 days). C.B-17 scid mice bearing CWR22 xenografts approximately 200 mm^3 in size received IV injections (200 μL constant volume) of the test articles according to the dosage and schedule shown in the Table 24.

CD-1 mice = assay: Single IV administration toxicity of deJ591-DM1 and DM1 in CD-1 mice; format: in vivo, mouse

Compound | tumor uptake over time [1] | plasma half-life [2] | negative mAb scans in patients without documented soft tissue metastases ([3]; fifteen patients) | specificity, bone ([3]; seven patients with negative bone scans) | Liver uptake ([4]; 5 mg) | Plasma clearance (T1/2) ([4]; 5 mg) | Liver uptake ([4]; 10 mg) | Plasma clearance (T1/2) ([4]; 10 mg) | Liver uptake ([4]; 20 mg) | Plasma clearance (T1/2) ([4]; 20 mg) | Total deJ591 AUC ([5]; 6 mg/kg (72 mg/m^2), study KLA W-171) | Total deJ591 AUC ([5]; 10 mg/kg (120 mg/m^2), study CTBR 57355) | tumor localization to known tumor sites (prostate cancer) | mortality (LNCaP tumor xenografts) | Relative TGD ([6]; Castrate mice, 240 μg/kg DM1-equivalents, q3dX5) | change in growth delay for castrate mice relative to androgen-intact mice ([6]; q3dx5) | toxicity compared with deJ591-DM1 at equimolar dosages (CD-1 mice)
deJ591 | gradually increased with time and is quite similar to that of 7E11 | varied with dose | 100% | 100% | 28%±14% | 21 ± 11 h | 17%±7% | 24 ± 6 h | 13%±5% | 37 ± 8 h | 25200 µg·h/mL | 49400 µg·h/mL | excellent |  |  |  | 
COc1cc2cc(c1Cl)N(C)C(=O)C[C@H](OC(=O)[C@H](C)N(C)C(=O)CCS)[C@]1(C)O[C@H]1[C@H](C)[C@@H]1C[C@@](O)(NC(=O)O1)[C@H](OC)/C=C/C=C(\C)C2 [DM1, reference compound] |  |  |  |  |  |  |  |  |  |  |  |  |  | died within 48 hours of treatment completion | 1.4 | 1.4 fold | tended to be less toxic than deJ591-DM1 at lower dosages

— patent US20060062793A1, “Modified antibodies to prostate-specific membrane antigen and uses thereof” (priority 2004, published 2006)
